The target in one test is T1, Doc (UniProt Q06259 1-126).
T1 sequence: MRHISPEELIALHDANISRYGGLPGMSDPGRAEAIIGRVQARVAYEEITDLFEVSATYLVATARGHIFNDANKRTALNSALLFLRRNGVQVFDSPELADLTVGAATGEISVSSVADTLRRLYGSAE
Kind of test: ITC. On the technique in general: Isothermal titration calorimetry measures the heat released or taken up as one component is titrated into another.

Test [1] addresses T2, Doc (wild type), toxin of the doc/phd toxin/antitoxin module (UniProt Q06259 1-126).
T2 sequence: T1 sequence
Kind of test: ITC.

B1: Phd^52-73 (domain or fragment)
chain: LDAEFASLFDTLDSTNKELVNR
For the molecule B1, the binding result with Doc is given as “binds”.

B2: antitoxin domain of Phd (residues 52-73) (peptide)
chain: LDAEFASLFDTLDSTNKELVNR
Regarding B2, the binding result in test [1] is “binds”.
